From patent publication US20040013647A1

Target: 508F(Fv)-CBD (508 scFv mutant C96F fused to CBD) (Clostridium thermocellum) (UniProt Q06851)
Test: competitive ELISA, soluble βAP(1-16) pre-incubated with 508F(Fv)-CBD before βAP coated wells

βAP(1-16), β-amyloid 1-16 amino acid peptide
IC50: 1000 nM
